Experimental data: article PMC7060085 (ACS applied materials & interfaces, 2019)

Target: the molecule itself
Test: SEC

B1: Physalis mottle virus (PhMV) virus-like particle, native (unmodified recombinant coat protein) (natural protein)
chain: MDSSEVVKVKQASIPAPGSILSQPNTEQSPAIVLPFQFEATTFGTAETAAQVSLQTADPITKLTAPYRHAQIVECKAILTPTDLAVSNPLTVYLAWVPANSPATPTQILRVYGGQSFVLGGAISAAKTIEVPLNLDSVNRMLKDSVTYTDTPKLLAYSRAPTNPSKIPTASIQISGRIRLSKPMLIAN
B1: binds.
